Here are results for three molecules from patent US20040033534A1 (WISCONSIN ALUMNI RESEARCH FOUNDATION, published 2004).

In data set [1] the target is PhoB (complete PhoB sequence).
Data set [2] concerns the target T1, VanR~P (phosphorylated VanR) (Enterococcus faecium, UniProt Q06239 1-231, phosphorylated with acetyl phosphate; Asp-55 is named as the residue that accepts the phosphoryl group). The data set is described as follows: not stated (comparison of VanR and VanR˜P; reference is unphosphorylated VanR).
Data set [3] concerns the target T1, VanR~P (phosphorylated VanR). The data set is described as follows: cell-based or functional assay.

Positions of bridges follow the written chain, without caps; N, C: chain ends. No end group written: not given here.

T1 sequence (Q06239 whole entry): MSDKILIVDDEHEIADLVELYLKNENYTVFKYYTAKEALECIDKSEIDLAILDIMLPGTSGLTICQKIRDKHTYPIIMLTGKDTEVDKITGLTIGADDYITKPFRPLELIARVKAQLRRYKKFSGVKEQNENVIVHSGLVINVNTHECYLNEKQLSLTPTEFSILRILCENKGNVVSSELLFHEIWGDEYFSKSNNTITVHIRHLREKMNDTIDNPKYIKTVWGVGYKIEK

B1: GST-VanSc (Arg-93-TAA-283 stop) (protein)
chain: RVMLSKFAKYFDEINTGIDVLIQNEDKQIELSAEMDVMEQKLNTLKRTLEKREQDAKLAEQRKNDVVMYLAHDIKTPLTSIIGYLSLLDEAPDMPVDQKAKYVHITLDKAYRLEQLIDEFFEITRYNLQTITLTKTHIDLYYMLVQMTDEFYPQLSAHGKQAVIHAPEDLTVSGDPDKLARVFNNILKNAA
For the molecule B1, the “phosphoryl transfer from VanS˜P to PhoB” value in data set [1] was “VanS˜P was incubated with PhoB, and phosphoryl transfer was assessed”.

As for SLCHDSVIGWEC (disulfide 3-12 (inferred), also called Peptide E12) [dodecamer peptide SEQ ID NO. 1], the “fold difference between binding to VanR and binding to VanR˜P” value in data set [2] was > 100 fold.

Turning to SLAHDSIIGYLS [peptide SEQ ID NO. 2], the “IC50 for inhibiting VanR˜P binding to [32P] PVanH (gel shift), relative to SEQ ID NO. 1” value in data set [3] was 10 fold.
